Experimental data from the nanobody polyreactivity screen of Harvey et al. (2022).

experiment: yeast display, Sf9 membrane polyspecificity reagent, FACS + sequencing; frameworks hold sequencing errors
Outline: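 Galactose-induced (36–48 hours) yeast carrying a synthetic nanobody display library were exposed to 10% biotinylated, detergent-solubilized Sf9 membrane reagent at 4 °C for 1 hour. FACS followed streptavidin microbead enrichment, using low and high (top ~1%) gates for expression (anti-HA) and reagent binding (streptavidin). Colony PCR, MiSeq 2 × 250 sequencing and CDR-length filtering followed. Labels for polyreactivity reflect the gate of origin.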

Row | Sequence | polyreactivity (PSR sort gate)
1 | QVQLVESGGRLVQAGGSLRLSCAASGRIFVVNAMGWYRQAPGKEREFVAAITDNTGSTYYADSVKGRFTISRDNAKNTGYLQMNSLNPEDTAVYYCAAYGYSKDLWNFYYWGQGTQVTVSS | low polyreactivity
2 | QVQLVESGGRLVQAGGSLRLSCAASGRIFWHNAMGWYRQAPGKETELVAAISSRGGSTSYSDSVKGRFTISRDNAKNTVYLQMNSLKPEDTAVYYCAALFRPRVHRYDYWGQGTQVTVSS | low polyreactivity
3 | QVQLVESGGRLVQAGGSLRLSCAASGRLFASNAMGWYLQAPGTEMELVAGNSRNGGSTFYADSVKGRFTISRDNAKNTVYLQMNSRKPEDSAVYYCARYYTHSGGYRDRIYYFWGQGTQVTVSS | low polyreactivity
4 | QVQLVESGGRLVQAGGSLRLSCAASGRTFDFYAMGWYRQAPGKERELVAAISSRGGSTYYADSVKGRFTISRDNAKNTVYLQMNSLKPEDTAVYYCAKDLGYRGRYNYWGQGTQVTVSS | low polyreactivity
5 | QVQLVESGGRLVQAGGSLRLSCAASGRTFLHNAMGWYRQAPGKERELVAAIDSGGTTHYADSVKGRFTISRDNAKNTVYLQMNSLKPEDTAVYNCAARPTRGHWWYGNWGQGTQVTVTS | low polyreactivity
6 | QVQLVESGGRLVQAGGSLRLSCAASGRTFVSYAMGWYRQAPGKERELVATITGSTGGTYYADSVKGRFTISRDNAKNTVYLQMNSLKPEDTAVYYCNKDYYYNPGNVASGYDYWGHGTQVTVSS | low polyreactivity
7 | QVQLVESGGRLVQAGGSLRLSCAASGSIFAWSMGWYRPAPGKERELVAAISSGGSTYYADSVKGRFTISRDNAKNTVYFQMNSLKPEDTAVYYCAAGLISRFSRYYFWGQGTQVTVSS | high polyreactivity
8 | QVQLVESGGRLVQAGGSLRLSCAASGSIFRYYALGWYRQAPGKERELVAAISWSGGSTYYADSVKGRFTISRDNAKNTVYLQMNSLKPEDTAVYYCATTPGVWSTGGTNGFGYWGQGNQVTVSS | high polyreactivity
9 | QVQLVESGGRLVQAGGSLRLSCAASGSIIAWYVLGWYRRAAGKERELVAGIDTSGGSTFYADSVMGRFTISRDIAKNTVYLQMNSLKTEATAVYYCAADTWYRGPWEFDYWGQGTQVTVSS | low polyreactivity
10 | QVQLVESGGRLVQAGGSLRLSCAASGSTFRGYAMGWYIPAPGKEWELVATITSGGSTKYADSVKGRFTISRDNAKNTVYLQMNSLKPEDTAVYYCNAVPRSWSPYRHWFDYWGQGTQVTVSS | low polyreactivity
11 | QVQLVESGGRLVQAGGSLRLSCAASGSTFVCYAMGWYRQAPGKERELVAAISSGGRTHYADSVMARFTISRDNAKNTVILQMNSLKREDTAFYYCNAAYYILRFRYDYWGQGTQVTVSS | high polyreactivity
12 | QVQLVESGGRLVQAGGSLRLSCAASGSTFYPYAMGWYRQAPGKERELVAAINGNGGRTYYADSVKGRFTISRDNAKNTVYLQMNSLKPEDTAVYYCAVVRVAWGHRSDYWGQGTQVTVSS | high polyreactivity
13 | QVQLVESGGRLVQAGGSLRLSCAASGYIFKTNVMGWYRQAPGKEREMVAAISWSGGRTYYADSVKGRFTISRDYGKNCVYLQMNSLKPEDTSVYYFAAVGRQSIYFVDYDFWGQGTQVTVSS | high polyreactivity
14 | QVQLVESGGRLVQAGGSLRLSCAAYGSTFQGYAMGWYRQAPGKERELVADISWSGGSTYYADSVKGRFTISRDNAKNTVYLQMNSLKPEDTAVYYCNAVGYLDFEWGQGTQVTVSS | low polyreactivity
15 | QVQLVESGGRLVQAGGSLRLSCASSGFTFRYYAMGWYRQAPGKERELVASITGNGGSTYYADSVKGRFTISRDNAKNTVFLHMNSLKPEDTAVYYCNARVRGYYEYNYWGQGTQVTVSS | high polyreactivity
16 | QVQLVESGGRLVQAGGSLRLSCSASGLTFTNYAMGSYRQAPGKERELVAAISNSGATTYYADSVKGRFTISRDNAKNTVYVQLKSLKPEDTAVYYCAATSYTATWRYYYWGQGTQVTVSS | high polyreactivity
17 | QVQLVESGGRLVQAGGSLSISCAASGSTFTSYSMGWYRQAPGKERELVAAIRRIGGDTYYADSVKGRFTISRDNAKNTVYLQMNSLKPEDTAVNYCAAVRWRSEPYWYHAMEHWGQGTQVTVSS | low polyreactivity
